Test results reported in the supplement of paper PMC10266784.

B1: library; numbered along this chain (parent)
chain: MAAAAAAAAEQQSSNGPVKKSMREKAVERRSVNKEHNSNFKAGYIPIDEDRLHKTGLRGRKGNLAICVIILLFILAVINLIITLVIWAVIRIGPNGCDSMEFHESGLLRFKQVSDMGVIHPLYKSTVGGRRNENLVITGNNQPIVFQQGTTKLSVENNKTSITSDIGMQFFDPRTQNILFSTDYETHEFHLPSGVKSLNVQKASTERITSNATSDLNIKVDGRAIVRGNEGVFIMGKTIEFHMGGNMELKAENSIILNGSVMVSTTRLPSSSSGDQLGSGDWVRYKLCMCADGTLFKVQVTSQNMGCQISDNPCGNTH

Variants of: B1
Assay: SGCB cell-surface expression functional score (HA stain, bin4 vs bin1, normalised to synonymous) (log10 ratio); higher = more cell-surface SGCB (functional)
In short: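 Using lentivirus at MOI <0.1, HA-tagged, YFP-fused human beta-sarcoglycan codon-saturation libraries were put into HEK293 cells with stable alpha-, gamma- and delta-sarcoglycan expression, in duplicate transductions. YFP-positive cells were collected by sorting 72 hours later, grown 5–7 days, stained on ice with Alexa Fluor 647 anti-HA, fixed, sorted into four 5% intensity bins and amplicon-sequenced. The functional score takes the median, across codons and transductions, of the log ratio of highest-bin to lowest-bin variant frequency. Within each section, synonymous variants were scaled to mean 0, SD 0.5.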

SGCB cell-surface expression functional score (log10), by site and new letter:
I162: G -1.34, P -1.25, E -0.89, N -0.83, Y -1.43, T -1.07, V -0.49, W 0.05, H -1.02, K -1.11, L -0.6, M 0.23, S -1.09, R -1.34, A -0.52, Q -0.98, C -1.23, F -0.81, D -1.31
I166: C 0.54, A -0.49, F 0.57, G -0.41, E 0.76, D -1.32
Q148: Y -0.25, N -1.26, P -1.36, R 0.02, V 0.28, T 0.08, W 0.01, S 0.42, K -0.27, L -0.18
T151: I -0.82, V -0.15, K -0.7, D -1.17, S 0.27, Q -0.98, H -1.24, M -1.13, N -0.56, C -0.22, F -1, W -1.19, L -1.22, P -0.64, A -0.08, Y -1, G -0.94, E -1.31, R -1.06
N158: P -0.76, A -0.1, I -0.21, R -0.6, E -0.02, W -0.42, T 0.18, S 0.15, L -0.11, G -0.06, Y -0.05, F -0.06, K -0.26, C 0, V -0.44, M -0.12, H -0.2, Q 0.06, D 0.02
G149: T -0.75, I -0.64, M -0.18, E -0.93, P -1.17, C -0.49, S -0.12, F -0.45, W -0.54, V -0.88, A -0.43, L -0.34, H -0.28, N 0.19, Y -0.57, D -0.25, K -0.63, R -0.54, Q -0.01
N157: D -0.02, T -0.05, K -0.19, S -0.08, P 0.01, C 0.02, E -0.18, G 0.52, L 0.19, W 0.34, Y 0.04, R 0.01, F -0.21, Q 0.38, I -0.06, H 0.06, M 0.06, V 0.48, A 0.08
T163: M -1.06, I 0.32, E -0.38, Q 0.21, S -1.01, L -0.56, A -0.32, K -0.3, V 0.25, C -0.72, H -0.2, P -1.3, G -1.5, Y 0.58, F -0.27, D -1.08, R -0.05
K152: H -0.48, F 0.02, A 0, L -0.53, D -0.66, T -0.04, P -0.94, M -0.19, E -0.38, Q -0.46, C 0.03, N -0.11, I 0.14, V 0.52, W 0.3, R -0.22, S -0.23, Y -0.59, G -0.57
T160: M -1.02, F -0.15, Q -1.26, N -0.8, Y -1.13, S -0.5, R -1.29, H -0.01, V 0.03, P -1.28, A -0.29, K -2.03, E -1.3, G -1.29, I 0.64, C -0.14, L 0.17, W -0.95, D -1.29
T150: E -0.57, A -0.2, R -0.26, C 0.25, M -0.99, P -0.37, S -0.15, D 0.59, Q -0.12, Y 0, G -0.22, H 0, W 1.1, V -0.25, L -0.19, F -0.59, K -0.14, N 0.07, I 0.04
L153: P -1.07, Y -1.24, W -1.15, I -0.17, H -1.03, F -0.26, E -0.79, V -0.65, M 0.18, T -0.99, S -1.03, K -1.12, D -1.44, A -1.08, C -0.34, N -1.69, R -1.23, Q -1.65, G -0.65
K159: V -0.09, N -0.03, D -1.02, A -0.02, Q -0.09, G 0.43, S -0.32, Y -0.79, H -0.05, M -0.28, C -0.02, P -1.13, L 0.31, F -0.25, I 0, R -0.48, E -0.7, T -0.28, W -0.05
V155: L 0.18, G -1.18, R -1.45, N -1.38, H -1.51, T -1.02, Y -1.9, A -0.56, D -0.85, W -1.19, K -1.53, C -0.76, S -1.06, M 0.02, Q -1.48, E -0.74, P -1.4, F -0.64, I 0.29
S154: C 0.11, K 0.55, N -0.3, V 0.16, L -0.22, E -0.33, D 0.2, H -0.24, A 0.26, I 0, M 0.54, P -1.03, R 0.01, W -0.21, T -0.08, Q -0.7, F -0.49, Y -0.16, G -0.24
S164: P -1.87, H -1.56, Q -0.96, K -0.97, W -2.58, Y -1.05, C -0.79, M -2.05, A -0.39, N -0.99, V -0.34, D 0.11, L -1.91, E -0.83, F -1.08, T -0.69, R -0.91, G -0.13, I -1.26
E156: L -0.43, S -0.22, P -0.84, C 0.01, M -0.14, W -0.4, F -0.1, H -0.39, V -0.3, K -0.6, D -0.04, N -0.23, Y -0.38, R -0.38, I -0.63, Q 0.19, T -0.18, G -0.23, A -0.03
D165: Q -1.09, T 0.73, I 0.19, G -0.11, S -0.01, Y -0.38, L -0.58, H 0.61, V 0.5, N -0.35, R 0.2, F 0.07, K -0.75, P 0.58, A 0.17, E 0.02
S161: L 0.12, D -0.8, E 0.42, I -0.06, Y -0.18, T 0.3, N -0.84, M -0.34, V -0.12, W -0.98, F -0.36, P -1.15, A 0.29, Q 0.14, H -0.26, R 0.02, C -0.11, K -0.33, G 0.01
